“And” between values parts separate entries of the source, which are not always exact repeats. Identical values can stand only once.
B1: wt ALKBH3: wild-type human Fe(II)/2OG-dependent dioxygenase ALKBH3 with N-terminal His-tag, expressed in E. coli (protein, UniProt Q96Q83 1-286, looked up)
Alpha-ketoglutarate-dependent …: MEEKRRRARVQGAWAAPVKSQAIAQPATTAKSHLHQKPGQTWKNKEHHLSDREFVFKEPQQVVRRAPEPRVIDREGVYEISLSPTGVSRVCLYPGFVDVKEADWILEQLCQDVPWKQRTGIREDITYQQPRLTAWYGELPYTYSRITMEPNPHWHPVLRTLKNRIEENTGHTFNSLLCNLYRNEKDSVDWHSDDEPSLGRCPIIASLSFGATRTFEMRKKPPPEENGDYTYVERVKIPLDHGTLLIMEGATQADWQHRVPKEYHSREPRVNLTFRTVYPDPRGAPW
modifications: N-terminal His-tag
notes: wild-type human Fe(II)/2OG-dependent dioxygenase ALKBH3 with N-terminal His-tag, expressed in E. coli
B2: Y143F ALKBH3: ALKBH3 mutant, Tyr143 replaced with Phe (protein, UniProt Q96Q83 1-286, looked up, variant Y143F)
Alpha-ketoglutarate-dependent …: MEEKRRRARVQGAWAAPVKSQAIAQPATTAKSHLHQKPGQTWKNKEHHLSDREFVFKEPQQVVRRAPEPRVIDREGVYEISLSPTGVSRVCLYPGFVDVKEADWILEQLCQDVPWKQRTGIREDITYQQPRLTAWYGELPYTFSRITMEPNPHWHPVLRTLKNRIEENTGHTFNSLLCNLYRNEKDSVDWHSDDEPSLGRCPIIASLSFGATRTFEMRKKPPPEENGDYTYVERVKIPLDHGTLLIMEGATQADWQHRVPKEYHSREPRVNLTFRTVYPDPRGAPW
B3: Y143A ALKBH3: ALKBH3 mutant, Tyr143 replaced with Ala (protein, UniProt Q96Q83 1-286, looked up, variant Y143A)
Alpha-ketoglutarate-dependent …: MEEKRRRARVQGAWAAPVKSQAIAQPATTAKSHLHQKPGQTWKNKEHHLSDREFVFKEPQQVVRRAPEPRVIDREGVYEISLSPTGVSRVCLYPGFVDVKEADWILEQLCQDVPWKQRTGIREDITYQQPRLTAWYGELPYTASRITMEPNPHWHPVLRTLKNRIEENTGHTFNSLLCNLYRNEKDSVDWHSDDEPSLGRCPIIASLSFGATRTFEMRKKPPPEENGDYTYVERVKIPLDHGTLLIMEGATQADWQHRVPKEYHSREPRVNLTFRTVYPDPRGAPW
B4: L177A ALKBH3: ALKBH3 mutant, Leu177 replaced with Ala (protein, UniProt Q96Q83 1-286, looked up, variant L177A)
Alpha-ketoglutarate-dependent …: MEEKRRRARVQGAWAAPVKSQAIAQPATTAKSHLHQKPGQTWKNKEHHLSDREFVFKEPQQVVRRAPEPRVIDREGVYEISLSPTGVSRVCLYPGFVDVKEADWILEQLCQDVPWKQRTGIREDITYQQPRLTAWYGELPYTYSRITMEPNPHWHPVLRTLKNRIEENTGHTFNSLACNLYRNEKDSVDWHSDDEPSLGRCPIIASLSFGATRTFEMRKKPPPEENGDYTYVERVKIPLDHGTLLIMEGATQADWQHRVPKEYHSREPRVNLTFRTVYPDPRGAPW
B5: H191A ALKBH3: ALKBH3 mutant, His191 replaced with Ala (protein, UniProt Q96Q83 1-286, looked up, variant H191A)
Alpha-ketoglutarate-dependent …: MEEKRRRARVQGAWAAPVKSQAIAQPATTAKSHLHQKPGQTWKNKEHHLSDREFVFKEPQQVVRRAPEPRVIDREGVYEISLSPTGVSRVCLYPGFVDVKEADWILEQLCQDVPWKQRTGIREDITYQQPRLTAWYGELPYTYSRITMEPNPHWHPVLRTLKNRIEENTGHTFNSLLCNLYRNEKDSVDWASDDEPSLGRCPIIASLSFGATRTFEMRKKPPPEENGDYTYVERVKIPLDHGTLLIMEGATQADWQHRVPKEYHSREPRVNLTFRTVYPDPRGAPW

Legend:
[1] = Equilibrium fluorescence titration with Fe(II); assay type: binding; conditions: 1 µM apoprotein, 25 °C; read-out: Dissociation constant Kd, Fe(II)
Description: To investigate the impact of selected mutations on ALKBH3’s ability to bind its cofactor, co-substrate, and methylated DNA, the fluorescent titration method was employed. It is well-established that enzyme–ligand binding typically leads to a protein conformational change, which in turn can alter the fluorescence intensity of tryptophan and tyrosine residues within the protein sequence. […] In this study, transitional metals (Fe(II), Ni(II), and Co(II)), 2OG, and the m3C substrate served as titrants. Protein fluorescence quenching was measured after the addition of an excess of the ligand to 1 µM of enzyme (Supplementary Figure S2). To determine the equilibrium dissociation constant’s Kd values, the resulting titration curves were analyzed using a non-linear regression algorithm (see Section 4.3 of “Materials and Methods” for details). […] As indicated by the data presented in Table 2, the stability of the wt ALKBH3 apoenzyme’s affinity to various ligands and damaged DNA generally corresponds to the stability of such complexes for AlkB and ALKBH2 enzymes. […] The binding of Ni(II) and Co(II) ions of similar radii was weakened by approximately two-fold. […] This behavior is more characteristic of the bacterial homolog AlkB rather than human ALKBH2 [7].
The intrinsic tryptophan fluorescence quenching was monitored at the maximum of emission (345 nm, in most cases) using an excitation wavelength of 280 nm, and 5 nm slits. An amount of 2 mM of (NH4)2Fe(SO4)2·6H2O, 2 mM of NiSO4×7H2O, 2 mM of CoSO4·7H2O, 2 mM of 2OG, or 100 µM of m3C substrate was titrated into 1 µM of apoprotein (a free enzyme with no metal or 2OG added) in the presence of 50 mM of HEPES-KOH (pH 7.8), 50 mM of KCl, and 10 mM of MgCl2. When titrating with DNA, the buffer was supplemented with 2 mM of EDTA. The dissociation constant Kd for a model of one-step binding (E + L ↔ EL) was determined using Equations (2)–(5) and a non-linear regression algorithm in the OriginPro 8.1 software (OriginLab Corp., Northampton, MA, USA):(2) Kd=E[L]/[EL] (3) F=f0+f1E+f2[EL] (4) e0=E+[EL] (5) l0=L+[EL] where F is the observed fluorescence intensity at any given ligand (L) concentration; f0 is the background fluorescence; f1 and f2 are partial fluorescence intensities of the free enzyme (E) and enzyme–ligand complex (EL), respectively; e0 and l0 are total concentrations of the enzyme and ligand.
Figure S2. Equilibrium binding of the wild-type and mutant ALKBH3 proteins to transition metals, 2OG, or m3C-containing DNA. The quenching of the enzyme ﬂuorescence is shown as a function of Fe(II) (A), Ni(II) (B), Co(II) (C), 2OG ( D), and single-stranded m3C substrate (E). The protein concentration was 1 µM. In the course of titration by Fe(II), a sodium ascorbate (1mM) was added to keep the metal in a reduced state. Experimental data points were ﬁtted to a single-site binding mode l (see “Materials and Methods”). Each trace represents the average of three technical […]
(1 picture or pasted object on this page, not shown here)

[2] = Thermal denaturation followed by CD spectroscopy; assay type: physicochemical; conditions: for Tm: apoprotein 0.2 mg/mL, 10 mM potassium phosphate pH 7.8, 50 mM (NH4)2SO4; for ΔH (enthalpy of unfolding) / ΔS (entropy of unfolding): apoprotein, single-stage model; for ΔG^298: calculated from ΔH and ΔS at 298 K
Protocol: The effect of substitutions of conserved amino acids in the active site of ALKBH3 on its thermal stability was studied by circular dichroism (CD) spectroscopy combined with thermal denaturation of the samples. The CD data were collected for wt and mutant apoproteins at various temperatures (25–70 °C) with 2–5 °C intervals (Supplementary Figure S3). […] Melting profiles expressed as a temperature dependence of the mean residue ellipticity at 218 nm were largely sigmodal, indicating the presence of a single transition between the folded and unfolded state (Figure 6B).
The melting profiles were analyzed quantitatively using characteristic wavelengths between 208 and 222 nm by a single-stage model.
Thermal stability experiments were performed under the same conditions. The spectra were collected from 25 to 70 °C, with the samples incubated at each temperature for 3–5 min before measuring. After that, each sample was gradually cooled to 25 °C and the spectrum was recorded again to observe possible refolding of the protein. Melting curves were corrected for background, transformed to the mean residue ellipticity units, and smoothed using the Savitzky–Golay method with a polynomial order of 3. Values of [θ] at wavelengths of 208 and 218 nm as a function of temperature were used to determine the thermodynamics of folding. The values of Tm and ΔH were determined by non-linear regression analysis with the help of Equations (6)–(8):(6) θt=θu+θf−θuK/1+K, (7) K=exp(ΔH/1.987·tt/Tm−1)=exp(−ΔH−t·ΔS/1.987·t), (8) ΔG=−RTlnK where θt—the mean residue ellipticity (in deg·cm^2·dmol^−1) at any given temperature t; θu—the mean residue ellipticity of the unfolded protein; θf—the mean residue ellipticity of the folded protein; K—the constant of unfolding; Tm—the melting temperature; ΔH—the enthalpy of unfolding, ΔS—the entropy of unfolding.
Figure 6 Thermal stability of wt and mutant ALKBH3 proteins measured by CD spectroscopy. (A) Spectra of wt ALKBH3 between 180 and 270 nm at 25 °C (light blue), after heating to 70 °C (dark blue), and cooling again to 25 °C (dashed light blue). (B) Representative melting profiles of wt (blue), Y143F (yellow), Y143A (green), L177A (red), and H191A ALKBH3 (violet) derived from the θ values at 218 nm. The unfolding transitions were monitored 0.2 mg/mL of the apoprotein in 10 mM Potassium Phosphate (pH 7.8) and 50 mM (NH4)2SO4.

Molecule | Kd [1] [µM] | Tm [2] | Tm ([2]; listed as wt) [°C] | ΔH (enthalpy of unfolding) [2] [kcal/mol] | ΔS (entropy of unfolding) [2] | ΔH (enthalpy of unfolding) ([2]; listed as wt) [kcal/mol] | ΔG^298 [2] [kcal/mol] | increase in ΔH relative to wt [2] [kcal/mol] | increase in ΔS relative to wt [2] [cal/mol·K] | reduction in melting temperature relative to wt [2] [°C]
B1 | 25 ± 2 | 45.5 °C and 45.6 °C | 45.6 ± 0.7 | 42 | 133 ± 2 cal/mol·K | 43 ± 1 | 3.4 ± 0.1 | – | – | –
B2 | 23 ± 2 | 43.5 ± 0.4 °C | – | 75 ± 5 | 236 ± 3 cal/mol·K | – | 4.7 ± 0.3 | 32 | 103 | 2.1
B3 | 25 ± 3 | 44.2 ± 0.2 °C | – | 54 ± 2 | 170 ± 0.6 cal/mol·K | – | 3.3 ± 0.1 | – | – | –
B4 | 24 ± 2 | 44.5 ± 0.6 °C | – | 79 ± 5 | 249 ± 1.3 cal/mol·K | – | 4.8 ± 0.4 | – | – | 1.1
B5 | 20 ± 2 | 42.7 ± 0.1 °C | – | 127 ± 9 | 403 cal/mol·K and 403 ± 0.4 cal/mol·K | – | 6.9 ± 0.5 | – | – | –

Source: paper PMC10816986, “The Role of Key Amino Acids of the Human Fe(II)/2OG-Dependent Dioxygenase ALKBH3 in Structural Dynamics and Repair Activity toward Methylated DNA” (International Journal of Molecular Sciences, 2024)
